{"source": "paper PMC4036362", "about": "“Normal Activation of Discoidin Domain Receptor 1 Mutants with Disulfide Cross-links, Insertions, or Deletions in the Extracellular Juxtamembrane Region” (The Journal of Biological Chemistry, 2014)"}
{"biological_target": "the molecule itself", "assay": "cross-linking; disulfide cross-linking of introduced cysteines in transiently transfected HEK293 cells, untreated or with 10 ug/ml collagen I for 90 min at 37 °C; lysis in 1% Nonidet P-40 buffer with NEM; nonreducing SDS-PAGE on 5% gels, Western blot with anti-DDR1; efficiency as percent dimeric of total DDR1", "units": {"dimerization efficiency (percent dimeric of total DDR1)": "%"}}
{"protein": "DDR1 residue 415 to cysteine (in the C287S background) (receptor, human, UniProt Q08345 19-913, looked up, discoidin domain receptor 1, isoform DDR1b, human; full-length cDNA in pRK5; The text gives only the range V408C to A417C (10 single mutants); also called one of the 10 mutants V408C to A417C; source: HEK293, transiently transfected, in lysate) DADMKGHFDPAKCRYALGMQDRTIPDSDISASSSWSDSTAARHSRLESSDGDGAWCPAGSVFPKEEEYLQVDLQRLHLVALVGTQGRHAGGLGKEFSRSYRLRYSRDGRRWMGWKDRWGQEVISGNEDPEGVVLKDLGPPMVARLVRFYPRADRVMSVCLRVELYGCLWRDGLLSYTAPVGQTMYLSEAVYLNDSTYDGHTVGGLQYGGLGQLADGVVGLDDFRKSQELRVWPGYDYVGWSNHSFSSGYVEMEFEFDRLRAFQAMQVHSNNMHTLGARLPGGVECRFRRGPAMAWEGEPMRHNLGGNLGDPRARAVSVPLGGRVARFLQCRFLFAGPWLLFSEISFISDVVNNSSPALGGTFPPAPWWPPGPPPTNFSSLELEPRGQQPVAKAEGSCTAILIGCLVAIILLLLLIIALMLWRLHWRRLLSKAERRVLEEELTVHLSVPGDTILINNRPGPREPPPYQEPRPRGNPPHSAPCVPNGSALLLSNPAYRLLLATYARPPRGPGPPTPAWAKPTNTQAYSGDYMEPEKPGAPLLPPPPQNSVPHYAEADIVTLQGVTGGNTYAVPALPPGAVGDGPPRVDFPRSRLRFKEKLGEGQFGEVHLCEVDSPQDLVSLDFPLNVRKGHPLLVAVKILRPDATKNARNDFLKEVKIMSRLKDPNIIRLLGVCVQDDPLCMITDYMENGDLNQFLSAHQLEDKAAEGAPGDGQAAQGPTISYPMLLHVAAQIASGMRYLATLNFVHRDLATRNCLVGENFTIKIADFGMSRNLYAGDYYRVQGRAVLPIRWMAWECILMGKFTTASDVWAFGVTLWEVLMLCRAQPFGQLTDEQVIENAGEFFRDQGRQVYLSRPPACPQGLYELMLRCWSRESEQRPPFSQLHRFLAEDALNTV", "dimerization efficiency (percent dimeric of total DDR1)": "> 70"}
{"protein": "DDR1 residue 420 to cysteine (in the C287S background) (receptor, human, UniProt Q08345 19-913, looked up, discoidin domain receptor 1, isoform DDR1b, human; full-length cDNA in pRK5; also called TM cysteine mutant, residue 420; source: HEK293, transiently transfected, in lysate) DADMKGHFDPAKCRYALGMQDRTIPDSDISASSSWSDSTAARHSRLESSDGDGAWCPAGSVFPKEEEYLQVDLQRLHLVALVGTQGRHAGGLGKEFSRSYRLRYSRDGRRWMGWKDRWGQEVISGNEDPEGVVLKDLGPPMVARLVRFYPRADRVMSVCLRVELYGCLWRDGLLSYTAPVGQTMYLSEAVYLNDSTYDGHTVGGLQYGGLGQLADGVVGLDDFRKSQELRVWPGYDYVGWSNHSFSSGYVEMEFEFDRLRAFQAMQVHSNNMHTLGARLPGGVECRFRRGPAMAWEGEPMRHNLGGNLGDPRARAVSVPLGGRVARFLQCRFLFAGPWLLFSEISFISDVVNNSSPALGGTFPPAPWWPPGPPPTNFSSLELEPRGQQPVAKAEGSPTAILCGCLVAIILLLLLIIALMLWRLHWRRLLSKAERRVLEEELTVHLSVPGDTILINNRPGPREPPPYQEPRPRGNPPHSAPCVPNGSALLLSNPAYRLLLATYARPPRGPGPPTPAWAKPTNTQAYSGDYMEPEKPGAPLLPPPPQNSVPHYAEADIVTLQGVTGGNTYAVPALPPGAVGDGPPRVDFPRSRLRFKEKLGEGQFGEVHLCEVDSPQDLVSLDFPLNVRKGHPLLVAVKILRPDATKNARNDFLKEVKIMSRLKDPNIIRLLGVCVQDDPLCMITDYMENGDLNQFLSAHQLEDKAAEGAPGDGQAAQGPTISYPMLLHVAAQIASGMRYLATLNFVHRDLATRNCLVGENFTIKIADFGMSRNLYAGDYYRVQGRAVLPIRWMAWECILMGKFTTASDVWAFGVTLWEVLMLCRAQPFGQLTDEQVIENAGEFFRDQGRQVYLSRPPACPQGLYELMLRCWSRESEQRPPFSQLHRFLAEDALNTV", "stoichiometry N": "~4"}
{"protein": "DDR1 residue 418 to cysteine (in the C287S background) (receptor, human, UniProt Q08345 19-913, looked up, discoidin domain receptor 1, isoform DDR1b, human; full-length cDNA in pRK5; source: HEK293, transiently transfected, in lysate) DADMKGHFDPAKCRYALGMQDRTIPDSDISASSSWSDSTAARHSRLESSDGDGAWCPAGSVFPKEEEYLQVDLQRLHLVALVGTQGRHAGGLGKEFSRSYRLRYSRDGRRWMGWKDRWGQEVISGNEDPEGVVLKDLGPPMVARLVRFYPRADRVMSVCLRVELYGCLWRDGLLSYTAPVGQTMYLSEAVYLNDSTYDGHTVGGLQYGGLGQLADGVVGLDDFRKSQELRVWPGYDYVGWSNHSFSSGYVEMEFEFDRLRAFQAMQVHSNNMHTLGARLPGGVECRFRRGPAMAWEGEPMRHNLGGNLGDPRARAVSVPLGGRVARFLQCRFLFAGPWLLFSEISFISDVVNNSSPALGGTFPPAPWWPPGPPPTNFSSLELEPRGQQPVAKAEGSPTACLIGCLVAIILLLLLIIALMLWRLHWRRLLSKAERRVLEEELTVHLSVPGDTILINNRPGPREPPPYQEPRPRGNPPHSAPCVPNGSALLLSNPAYRLLLATYARPPRGPGPPTPAWAKPTNTQAYSGDYMEPEKPGAPLLPPPPQNSVPHYAEADIVTLQGVTGGNTYAVPALPPGAVGDGPPRVDFPRSRLRFKEKLGEGQFGEVHLCEVDSPQDLVSLDFPLNVRKGHPLLVAVKILRPDATKNARNDFLKEVKIMSRLKDPNIIRLLGVCVQDDPLCMITDYMENGDLNQFLSAHQLEDKAAEGAPGDGQAAQGPTISYPMLLHVAAQIASGMRYLATLNFVHRDLATRNCLVGENFTIKIADFGMSRNLYAGDYYRVQGRAVLPIRWMAWECILMGKFTTASDVWAFGVTLWEVLMLCRAQPFGQLTDEQVIENAGEFFRDQGRQVYLSRPPACPQGLYELMLRCWSRESEQRPPFSQLHRFLAEDALNTV", "stoichiometry N": "~4"}
{"protein": "DDR1 A417C (in the C287S background) (receptor, human, UniProt Q08345 19-913, looked up, discoidin domain receptor 1, isoform DDR1b, human; full-length cDNA in pRK5; source: HEK293, transiently transfected, in lysate) DADMKGHFDPAKCRYALGMQDRTIPDSDISASSSWSDSTAARHSRLESSDGDGAWCPAGSVFPKEEEYLQVDLQRLHLVALVGTQGRHAGGLGKEFSRSYRLRYSRDGRRWMGWKDRWGQEVISGNEDPEGVVLKDLGPPMVARLVRFYPRADRVMSVCLRVELYGCLWRDGLLSYTAPVGQTMYLSEAVYLNDSTYDGHTVGGLQYGGLGQLADGVVGLDDFRKSQELRVWPGYDYVGWSNHSFSSGYVEMEFEFDRLRAFQAMQVHSNNMHTLGARLPGGVECRFRRGPAMAWEGEPMRHNLGGNLGDPRARAVSVPLGGRVARFLQCRFLFAGPWLLFSEISFISDVVNNSSPALGGTFPPAPWWPPGPPPTNFSSLELEPRGQQPVAKAEGSPTCILIGCLVAIILLLLLIIALMLWRLHWRRLLSKAERRVLEEELTVHLSVPGDTILINNRPGPREPPPYQEPRPRGNPPHSAPCVPNGSALLLSNPAYRLLLATYARPPRGPGPPTPAWAKPTNTQAYSGDYMEPEKPGAPLLPPPPQNSVPHYAEADIVTLQGVTGGNTYAVPALPPGAVGDGPPRVDFPRSRLRFKEKLGEGQFGEVHLCEVDSPQDLVSLDFPLNVRKGHPLLVAVKILRPDATKNARNDFLKEVKIMSRLKDPNIIRLLGVCVQDDPLCMITDYMENGDLNQFLSAHQLEDKAAEGAPGDGQAAQGPTISYPMLLHVAAQIASGMRYLATLNFVHRDLATRNCLVGENFTIKIADFGMSRNLYAGDYYRVQGRAVLPIRWMAWECILMGKFTTASDVWAFGVTLWEVLMLCRAQPFGQLTDEQVIENAGEFFRDQGRQVYLSRPPACPQGLYELMLRCWSRESEQRPPFSQLHRFLAEDALNTV", "stoichiometry N": "~4"}
{"protein": "DDR1 G421C (in the C287S background) (receptor, human, UniProt Q08345 19-913, looked up, discoidin domain receptor 1, isoform DDR1b, human; full-length cDNA in pRK5; source: HEK293, transiently transfected, in lysate) DADMKGHFDPAKCRYALGMQDRTIPDSDISASSSWSDSTAARHSRLESSDGDGAWCPAGSVFPKEEEYLQVDLQRLHLVALVGTQGRHAGGLGKEFSRSYRLRYSRDGRRWMGWKDRWGQEVISGNEDPEGVVLKDLGPPMVARLVRFYPRADRVMSVCLRVELYGCLWRDGLLSYTAPVGQTMYLSEAVYLNDSTYDGHTVGGLQYGGLGQLADGVVGLDDFRKSQELRVWPGYDYVGWSNHSFSSGYVEMEFEFDRLRAFQAMQVHSNNMHTLGARLPGGVECRFRRGPAMAWEGEPMRHNLGGNLGDPRARAVSVPLGGRVARFLQCRFLFAGPWLLFSEISFISDVVNNSSPALGGTFPPAPWWPPGPPPTNFSSLELEPRGQQPVAKAEGSPTAILICCLVAIILLLLLIIALMLWRLHWRRLLSKAERRVLEEELTVHLSVPGDTILINNRPGPREPPPYQEPRPRGNPPHSAPCVPNGSALLLSNPAYRLLLATYARPPRGPGPPTPAWAKPTNTQAYSGDYMEPEKPGAPLLPPPPQNSVPHYAEADIVTLQGVTGGNTYAVPALPPGAVGDGPPRVDFPRSRLRFKEKLGEGQFGEVHLCEVDSPQDLVSLDFPLNVRKGHPLLVAVKILRPDATKNARNDFLKEVKIMSRLKDPNIIRLLGVCVQDDPLCMITDYMENGDLNQFLSAHQLEDKAAEGAPGDGQAAQGPTISYPMLLHVAAQIASGMRYLATLNFVHRDLATRNCLVGENFTIKIADFGMSRNLYAGDYYRVQGRAVLPIRWMAWECILMGKFTTASDVWAFGVTLWEVLMLCRAQPFGQLTDEQVIENAGEFFRDQGRQVYLSRPPACPQGLYELMLRCWSRESEQRPPFSQLHRFLAEDALNTV", "stoichiometry N": "~4"}
{"protein": "DDR1 residue 419 to cysteine (in the C287S background) (receptor, human, UniProt Q08345 19-913, looked up, discoidin domain receptor 1, isoform DDR1b, human; full-length cDNA in pRK5; also called TM cysteine mutant, residue 419; source: HEK293, transiently transfected, in lysate) DADMKGHFDPAKCRYALGMQDRTIPDSDISASSSWSDSTAARHSRLESSDGDGAWCPAGSVFPKEEEYLQVDLQRLHLVALVGTQGRHAGGLGKEFSRSYRLRYSRDGRRWMGWKDRWGQEVISGNEDPEGVVLKDLGPPMVARLVRFYPRADRVMSVCLRVELYGCLWRDGLLSYTAPVGQTMYLSEAVYLNDSTYDGHTVGGLQYGGLGQLADGVVGLDDFRKSQELRVWPGYDYVGWSNHSFSSGYVEMEFEFDRLRAFQAMQVHSNNMHTLGARLPGGVECRFRRGPAMAWEGEPMRHNLGGNLGDPRARAVSVPLGGRVARFLQCRFLFAGPWLLFSEISFISDVVNNSSPALGGTFPPAPWWPPGPPPTNFSSLELEPRGQQPVAKAEGSPTAICIGCLVAIILLLLLIIALMLWRLHWRRLLSKAERRVLEEELTVHLSVPGDTILINNRPGPREPPPYQEPRPRGNPPHSAPCVPNGSALLLSNPAYRLLLATYARPPRGPGPPTPAWAKPTNTQAYSGDYMEPEKPGAPLLPPPPQNSVPHYAEADIVTLQGVTGGNTYAVPALPPGAVGDGPPRVDFPRSRLRFKEKLGEGQFGEVHLCEVDSPQDLVSLDFPLNVRKGHPLLVAVKILRPDATKNARNDFLKEVKIMSRLKDPNIIRLLGVCVQDDPLCMITDYMENGDLNQFLSAHQLEDKAAEGAPGDGQAAQGPTISYPMLLHVAAQIASGMRYLATLNFVHRDLATRNCLVGENFTIKIADFGMSRNLYAGDYYRVQGRAVLPIRWMAWECILMGKFTTASDVWAFGVTLWEVLMLCRAQPFGQLTDEQVIENAGEFFRDQGRQVYLSRPPACPQGLYELMLRCWSRESEQRPPFSQLHRFLAEDALNTV", "stoichiometry N": "~4"}
